This series deals with the molecule itself. Nature of the series: method not given; self-association.

B1: NoV P^--M2e protein (other)
chain: SRTKPFTVPILTVEEMSNSRFPIPLEKLYTGPSSAFVVQPQNGRCTTDGVLLGTTQLSAVNICTFRGDVTHIAGSHDYIMNLASQNWNNYDPTEEIPAPLGTPDFVGKIQGMLTQTTREDGSTRAHKATVSTGTVHFTPKLGSVQYTTSSLLTEVETPIRNEWGCRCNDSSDIDILQTGQNTKFTPVGVIQDGNNHQNEPQQWVLPNYSGRTGHNVHLAPAVAPTFPGEQLLFFRSTMPGCSGYPNMNLDCLLPQEWVQHFYQEAAPAQSDVALLRFVNPDTGRVLFECKLHKSGYVTVAHTGPHDLVIPPNGYFRFDSWVNQFYTLAPMGNGAGR
notes: also called NoV P^--M2e dimer
On to B1, for which the binding result was “binds”.

For the origin of these results see US20140017269A1 (CHILDREN S HOSPITAL MEDICAL CENTER, published 2014).
